Here are results for five molecules from US20170022277A1 (NATIONAL RESEARCH COUNCIL OF CANADA, published 2017).

Residue numbers refer to the chain shown, from its start.

For test [1], the target named is T1, recombinant human IGF1R extracellular fragment IGF1R^933-His (human, UniProt P08069 31-933).
T1 construct: It holds the full alpha subunit, the furin site RKRR and most of the extracellular part of the beta subunit; Amine-coupled to a CM5 chip for SPR; also called recombinant extracellular portion of the human IGF1R fragment; not shown: His tag from pCDN4/myc-His vector
The test is described as follows: SPR (BIACORE 3000), human IGF1R immobilized on CM5, 1:1 model. The method, then: Approximately 3000 Resonance Units (RU) of recombinant human IGF1R were immobilized on a Sensor chip CM5. Immobilization was carried out at a concentration of 10 μg/ml in 10 mM acetate at pH4.0 using the amine coupling kit supplied by the manufacturer. The remaining binding sites were blocked with 1 M ethanolamine pH 8.5. An ethanolamine blocked surface was used as a reference surface. For the binding studies, analyses were carried out at 25° C. in 10 mM HEPES, pH7.4 containing 150 mM NaCl, 3 mM EDTA and 0.005% surfactant P20 (Polyoxyethylenesorbitan; GE Healthcare). […] Surfaces were regenerated with 10 mM glycine pH 2.0 with a contact time of 24 seconds. Data were analyzed with BIAevaluation 4.1 software (GE Healthcare).
(In SPR one partner is held on a chip, and binding of the other changes the refractive index at the surface.)

Test [2] has as its target T2, recombinant human Insulin Receptor (R&D systems) (human, UniProt P06213-2 28-944, limits assumed).
T2 construct: extracellular domain; Bought protein; About 4000 RU immobilized on a CM5 chip; also called IR; recombinant extracellular portion of the human Insulin Receptor
The test is described as follows: SPR, IGF1R-4 VHH (0.5 - 50nM) over immobilized recombinant human Insulin Receptor.

T1 sequence (P08069 31-933): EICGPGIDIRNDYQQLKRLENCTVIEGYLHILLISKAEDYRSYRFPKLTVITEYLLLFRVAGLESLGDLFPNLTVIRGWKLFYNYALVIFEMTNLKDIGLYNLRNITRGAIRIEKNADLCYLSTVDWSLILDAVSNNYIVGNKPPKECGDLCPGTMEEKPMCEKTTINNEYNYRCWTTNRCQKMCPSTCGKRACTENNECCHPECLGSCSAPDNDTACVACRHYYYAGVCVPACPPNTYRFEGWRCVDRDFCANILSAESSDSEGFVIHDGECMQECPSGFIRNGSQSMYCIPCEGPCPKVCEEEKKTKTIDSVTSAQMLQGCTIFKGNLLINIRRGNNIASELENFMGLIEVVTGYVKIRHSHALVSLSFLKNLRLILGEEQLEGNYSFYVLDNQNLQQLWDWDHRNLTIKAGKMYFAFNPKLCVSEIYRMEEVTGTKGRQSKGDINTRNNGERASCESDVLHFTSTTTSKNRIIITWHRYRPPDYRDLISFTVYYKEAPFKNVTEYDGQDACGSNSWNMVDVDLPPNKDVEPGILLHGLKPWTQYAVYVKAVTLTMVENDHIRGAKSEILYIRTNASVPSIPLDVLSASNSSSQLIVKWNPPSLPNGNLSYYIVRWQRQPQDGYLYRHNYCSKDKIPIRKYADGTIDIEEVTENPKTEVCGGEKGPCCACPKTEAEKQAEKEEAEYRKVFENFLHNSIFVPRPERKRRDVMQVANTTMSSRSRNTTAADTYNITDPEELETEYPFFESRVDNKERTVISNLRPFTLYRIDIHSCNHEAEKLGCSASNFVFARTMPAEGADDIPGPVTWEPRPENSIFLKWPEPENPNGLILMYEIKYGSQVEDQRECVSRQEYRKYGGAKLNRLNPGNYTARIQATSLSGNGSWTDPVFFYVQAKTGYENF
T2 sequence (P06213 other isoform, or with tags, fused parts or gaps limits assumed): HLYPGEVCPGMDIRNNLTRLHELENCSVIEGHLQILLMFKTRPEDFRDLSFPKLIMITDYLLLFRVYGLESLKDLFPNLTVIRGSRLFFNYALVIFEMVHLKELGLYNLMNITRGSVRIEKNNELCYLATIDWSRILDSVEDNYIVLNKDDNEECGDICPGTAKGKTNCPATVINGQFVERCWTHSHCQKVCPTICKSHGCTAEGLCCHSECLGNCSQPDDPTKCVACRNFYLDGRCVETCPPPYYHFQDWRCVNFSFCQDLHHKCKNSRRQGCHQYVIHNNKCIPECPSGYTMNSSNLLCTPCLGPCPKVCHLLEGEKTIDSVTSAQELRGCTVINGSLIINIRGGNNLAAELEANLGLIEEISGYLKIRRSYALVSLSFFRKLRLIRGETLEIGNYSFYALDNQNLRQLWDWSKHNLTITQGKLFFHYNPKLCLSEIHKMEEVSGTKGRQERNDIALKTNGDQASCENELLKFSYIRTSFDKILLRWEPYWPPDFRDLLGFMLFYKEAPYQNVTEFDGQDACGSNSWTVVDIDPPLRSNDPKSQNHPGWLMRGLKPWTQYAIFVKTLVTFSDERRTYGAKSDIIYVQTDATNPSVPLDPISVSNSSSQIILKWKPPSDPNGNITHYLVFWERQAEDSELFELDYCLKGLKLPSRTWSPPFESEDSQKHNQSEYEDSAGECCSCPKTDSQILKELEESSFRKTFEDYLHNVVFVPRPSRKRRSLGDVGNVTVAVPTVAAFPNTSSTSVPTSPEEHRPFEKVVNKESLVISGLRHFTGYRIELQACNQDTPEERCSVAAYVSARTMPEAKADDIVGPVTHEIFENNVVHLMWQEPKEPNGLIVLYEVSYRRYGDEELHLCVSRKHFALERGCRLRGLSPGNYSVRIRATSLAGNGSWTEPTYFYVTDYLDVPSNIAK

B1: IGF1R-4_H4 (VHH)
VHH: QVQLVESGGGLVQPGGSLRLSCAVSGGTVSPTAMGWFRQAPGKGLEFVGHITWSRGTTRYASSVKGRFTISRDSSKNTVYLQMNSLRAEDTAVYYCAASTFLRILPEESAYTYWGQGTLVTVSS
notes: Humanized variant of IGF1R-4; expressed from pSJF2H in E. coli and purified by IMAC; any vector tag is not described
Turning to B1, in test [1], the Kd is 0.45 nM and the koff turned out to be 0.00039 s⁻¹.

B2: IGF1R-4_H5 (VHH)
VHH: B1 VHH with G44E, L45R
notes: as for B1
As for B2, in test [1], the equilibrium dissociation constant (Kd) was determined as 0.52 nM and the dissociation rate constant (koff) was 0.00046 s⁻¹.

B3: IGF1R-4_H3 (VHH)
VHH: B1 VHH with S74N
notes: as for B1
B3: in test [1], the Kd came to 0.39 nM and the koff was determined as 0.00034 s⁻¹.

B4: IGF1R-4_H2 (VHH)
VHH: B1 VHH with F37V, F47W, S74N
notes: as for B1
As to B4, in test [1], the Kd was 1.07 nM and the koff was 0.00061 s⁻¹.

B5: IGF1R-4 VHH (VHH)
VHH: QVKLEESGGGLVQAGGSLRLSCEVSGGTVSPTAMGWFRQAPGKEREFVGHITWSRGTTRVASSVKDRFTISRDSAKNTVYLQMNSLKSEDTAVYYCAASTFLRILPEESAYTYWGQGTQVTVSS
notes: Llama VHH, monomeric; Expressed from pSJF2H in TG1 E. coli and purified by IMAC; also called anti-IGF1R VHH IGF1R-4
As for B5, in test [1], the dissociation constant Kd stood at 0.32 nM and the off-rate constant (koff) is 0.00029 s⁻¹. Moreover, in test [2], the binding result is listed as “no binding (tested: 50 nM)”.

By Kd is commonly meant the free concentration of one partner at which half of the binding sites on the other are occupied at equilibrium, for simple one-to-one binding. By koff is commonly meant a measure of how fast the partners let go of each other.
